The supplement of paper PMC10567573

Test: protein stability index of a GFP-peptide fusion (GPS, HEK-293T) (PSI 1-6); higher = more stable
Conditions: c terminus: native
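Also: lentivirally expressed fusion library, cells FACS-sorted into six equal-sized GFP/DsRed ratio bins, PSI computed from sequencing read fractions per bin weighted by bin number.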

Q: With DGWIRVSSDNVADLHEKYSGSTPC [PSMB5 addC] as the protein, how does the protein stability index (parent: NP_002788.1) read?
A: 2.89

Q: Which protein stability index (parent: NP_006221.1) does the source give for CQPISFSGFGAEDDDLGGLGLGPC [POLD2 addC] here?
A: 2.27

Q: Which protein stability index (parent: NP_009172.2) does the source give for LPALFTDLYSQEITAEEAREALPC [SNF8 addC] here?
A: 3.81

Q: Which protein stability index (parent: NP_015628.1) does the source give for EQRNSRWNTVLRAVKAKTHHLEPC [TRPA1 addC] here?
A: 4.32

Q: For HSLRAVSTDPPHHDHHDEFCLMPC [BEX2 addC], which protein stability index (parent: NP_116010.1) is on record?
A: 3.48
